Data as given in US20260209352A1 (Adimab, published 2026).
Residue numbers refer to the chain shown, from its start.

B1: ADI-45960 (antibody, V domains shown)
VH: QVQLVQSGAEVKKPGASVKVSCKASGFNIKDYYMHWVRQAPGQRLEWIGWIDLENANTVYDAKFQGRVTITRDTSASTAYMELSSLRSEDTAVYYCARDAYGRYFYDVWGQGTLVTVSS
VL: DIVMTQSPDSLAVSLGERATINCKSSQSLLNARTGKNYLAWYQQKPGQPPKLLIYWASTRESGVPDRFSGSGSGTDFTLTISSLQAEDAAVYYCAQSYFRRTFGGGTKVEIK
notes: also called Ab23
B2: ADI-45976 (antibody, V domains shown)
VH: B1 VH with A97V
VL: B1 VL with A89V, A95V
notes: also called Ab12
B3: ADI-45981 (antibody, V domains shown)
VH: B1 VH
VL: B1 VL with T59M, G72R, A89V, A95S
notes: also called Ab18
B4: ADI-45970 (antibody, V domains shown)
VH: B1 VH with I29V
VL: B1 VL with A89V, A95K
notes: also called Ab6
B5: ADI-45983 (antibody, V domains shown)
VH: B1 VH with S77G
VL: B1 VL with G35M, W56A, A89V
notes: also called Ab20
B6: ADI-45961 (antibody, V domains shown)
VH: B1 VH
VL: B1 VL with G35R, K36R, A57G, A89V, A95K
notes: also called Ab24
B7: ADI-45962 (antibody, V domains shown)
VH: B1 VH with K12E, K13E
VL: B1 VL with A89V, A95V
notes: also called Ab25
B8: ADI-45967 (antibody, V domains shown)
VH: B1 VH with T71A, A79V
VL: B1 VL with T20I, A89V, A95T
notes: also called Ab3
B9: ADI-46375 (antibody, V domains shown)
VH: B1 VH
VL: B1 VL with G35R, A89V, A95T
notes: also called Ab38
B10: ADI-45980 (antibody, V domains shown)
VH: B1 VH with S84N
VL: B1 VL with S58F, A89V, A95T
notes: also called Ab17
B11: ADI-45963 (antibody, V domains shown)
VH: B1 VH with S17P
VL: B1 VL with A89V, A95K
notes: also called Ab26
B12: ADI-46374 (antibody, V domains shown)
VH: B1 VH with E54N
VL: B1 VL with A89V, A95V
notes: also called Ab37
B13: ADI-45969 (antibody, V domains shown)
VH: B1 VH with S84G
VL: B1 VL with A89V
notes: also called Ab5
B14: ADI-45964 (antibody, V domains shown)
VH: B1 VH with M34I
VL: B1 VL with A89V
notes: also called Ab27
B15: ADI-45978 (antibody, V domains shown)
VH: B1 VH with I48L
VL: B1 VL with T59A, A89V, A95T
notes: also called Ab15
B16: ADI-45968 (antibody, V domains shown)
VH: B1 VH with T74A
VL: B1 VL with A89V, A95V
notes: also called Ab4
B17: ADI-45979 (antibody, V domains shown)
VH: B1 VH
VL: B1 VL with S28E, A89V, A95K
notes: also called Ab16
B18: ADI-45971 (antibody, V domains shown)
VH: B1 VH with S17T, M34I
VL: B1 VL with G35R, A89V, A95V
notes: also called Ab7
B19: ADI-45972 (antibody, V domains shown)
VH: B1 VH with K13R
VL: B1 VL with A89V, A95V
notes: also called Ab8
B20: ADI-45966 (antibody, V domains shown)
VH: B1 VH with T69A
VL: B1 VL with A89V, A95T
notes: also called Ab29
B21: ADI-46376 (antibody, V domains shown)
VH: B1 VH with F64L, R87G, L114P
VL: B1 VL with A89V, A95T
notes: also called Ab39
B22: ADI-45977 (antibody, V domains shown)
VH: B1 VH with F64L, R87G
VL: B1 VL with A89V, A95T
notes: also called Ab14
B23: ADI-46381 (antibody, V domains shown)
VH: B1 VH with A62T
VL: B1 VL with S25T, S28G, G35N, A89V, A95V
notes: also called Ab43
B24: ADI-46379 (antibody, V domains shown)
VH: B1 VH with T78A
VL: B1 VL with T59A, A89V, A95T
notes: also called Ab41
B25: ADI-45973 (antibody, V domains shown)
VH: B1 VH with G8E
VL: B1 VL with A89V, A95K
notes: also called Ab9
B26: ADI-45974 (antibody, V domains shown)
VH: B1 VH with S85N
VL: B1 VL with A89V, A95K
notes: also called Ab10
B27: ADI-45965 (antibody, V domains shown)
VH: B1 VH with T58A
VL: B1 VL with E17G, A89V, A95V
notes: also called Ab28
B28: ADI-45982 (antibody, V domains shown)
VH: B1 VH
VL: B1 VL with S62N, A89V, A95T
notes: also called Ab19

Legend:
[1] = target: Human CD3εδ-Fc (human) (UniProt P04234); test: KD of scFv-Fc or IgG on human CD3εδ-Fc; instrument not given
Chain of Human CD3εδ-Fc (human) (chain, as listed by the source mutant, chain 1 of 2): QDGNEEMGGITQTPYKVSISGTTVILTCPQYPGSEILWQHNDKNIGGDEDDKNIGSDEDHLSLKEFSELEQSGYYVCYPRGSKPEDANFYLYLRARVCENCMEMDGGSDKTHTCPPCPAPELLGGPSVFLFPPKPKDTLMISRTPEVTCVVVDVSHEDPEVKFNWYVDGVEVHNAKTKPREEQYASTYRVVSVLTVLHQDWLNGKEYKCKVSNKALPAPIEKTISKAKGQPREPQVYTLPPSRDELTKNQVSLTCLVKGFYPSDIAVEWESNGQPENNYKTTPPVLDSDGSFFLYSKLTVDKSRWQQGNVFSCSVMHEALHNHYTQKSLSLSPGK
Chain of Human CD3εδ-Fc (human) (P04234 22-105, stated change not applied, chain 2 of 2): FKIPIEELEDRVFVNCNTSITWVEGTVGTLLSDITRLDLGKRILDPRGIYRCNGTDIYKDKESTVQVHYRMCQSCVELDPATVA

[2] = target: T1, Human CD3 on Human CD3+ Jurkat cells (human, UniProt P07766 23-207); test: cell binding hCD3, fold over background
T1 construct: whole, on cells; CD3 complex on cells; also called hCD3
T1 sequence (P07766 23-207): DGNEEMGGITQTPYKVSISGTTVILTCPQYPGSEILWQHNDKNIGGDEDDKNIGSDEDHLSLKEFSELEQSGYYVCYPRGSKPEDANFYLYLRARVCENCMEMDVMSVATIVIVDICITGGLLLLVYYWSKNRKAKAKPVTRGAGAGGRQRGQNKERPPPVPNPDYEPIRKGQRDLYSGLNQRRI

[3] = target: T2, Cynomolgus CD3 on Cyno CD3+ Jurkat cells (cynomolgus, UniProt Q95LI5 22-198); test: cell binding cCD3, fold over background
T2 construct: whole, on cells; CD3 on cells; also called cCD3
T2 sequence (Q95LI5 22-198): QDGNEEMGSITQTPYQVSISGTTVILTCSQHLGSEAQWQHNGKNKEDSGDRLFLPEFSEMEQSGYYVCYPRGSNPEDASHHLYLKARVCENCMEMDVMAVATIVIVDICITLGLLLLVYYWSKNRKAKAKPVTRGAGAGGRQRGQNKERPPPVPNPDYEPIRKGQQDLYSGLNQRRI

[4] = target: Cyno CD3εδ-Fc (cynomolgus) (UniProt Q95LI8); test: KD of scFv-Fc or IgG on cyno CD3εδ-Fc; instrument not given
Chain of Cyno CD3εδ-Fc (cynomolgus) (chain, as listed by the source mutant, chain 1 of 2): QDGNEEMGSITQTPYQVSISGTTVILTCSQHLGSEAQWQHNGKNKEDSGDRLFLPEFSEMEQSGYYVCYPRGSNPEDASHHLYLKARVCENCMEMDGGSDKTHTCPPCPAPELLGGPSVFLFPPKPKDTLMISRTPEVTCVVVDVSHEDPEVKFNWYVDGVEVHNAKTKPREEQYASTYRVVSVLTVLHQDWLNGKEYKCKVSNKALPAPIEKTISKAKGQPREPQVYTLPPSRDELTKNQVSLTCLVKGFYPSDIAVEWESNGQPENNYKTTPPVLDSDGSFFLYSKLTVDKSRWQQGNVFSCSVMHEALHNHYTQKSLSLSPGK
Chain of Cyno CD3εδ-Fc (cynomolgus) (Q95LI8 22-105, stated change not applied, chain 2 of 2): as the sequence (P04234 22-105, stated change not applied, chain 2 of 2) above, with I5V, N15K, I20V, S32T, D33N, I34N, T64A, S74N, V83L counted along it

Row | Binder | Kd [1] [nM] | Cell Binding hCD3 (FOB) [2] [FOB] | Cell Binding cCD3 (FOB) [3] [FOB] | Kd [4] [nM]
1 | B1 | 0.14 | 63 | 58 | 1.8
2 | B2 | 0.12 | 45 | 109 | 1.8
3 | B3 | 0.089 | 33 | 78 | 1.6
4 | B4 | 0.15 | 53 | 68 | 1.6
5 | B5 | 0.23 | 24 | 101 | 2
6 | B6 | 0.23 | 18 | 30 | 3
7 | B7 | 0.14 | 18 | 46 | 1.4
8 | B8 | 0.076 | 40 | 59 | 1.4
9 | B9 | 0.86 | 48 | 40 | 
10 | B10 | 0.08 | 8 | 85 | 1.2
11 | B11 | 0.069 | 14 | 69 | 2.1
12 | B12 | 0.84 | 37 | 29 | 
13 | B13 | 0.06 | 28 | 63 | 1.5
14 | B14 | 0.097 | 56 | 63 | 2
15 | B15 | 0.074 | 25 | 37 | 1.2
16 | B16 | 0.068 | 16 | 18 | 1.4
17 | B17 | 0.19 | 54 | 72 | 1.7
18 | B18 | 0.11 | 21 | 20 | 1.9
19 | B19 | 0.081 | 32 | 45 | 1.4
20 | B20 | 0.061 | 14 | 27 | 1.2
21 | B21 | 1 | 4 | 96 | 
22 | B22 | 0.091 | 59 | 159 | 1.1
23 | B23 | 0.72 | 71 | 174 | 
24 | B24 | 1 | 43 | 105 | 
25 | B25 | 0.16 | 55 | 91 | 1.8
26 | B26 | 0.19 | 47 | 67 | 2.1
27 | B27 | 0.065 | 33 | 124 | 1.4
28 | B28 | 0.12 | 24 | 31 | 1.4
